Data taken from ChEMBL document CHEMBL1128006, “Solid phase synthesis of trypanothione disulfide” (Bioorg Med Chem Lett, 1994).

Compound: NC(CCC(=O)NC1CSSCC(NC(=O)CCC(N)C(=O)O)C(=O)NCC(=O)NCCCNCCCCNC(=O)CNC1=O)C(=O)O
Assay: Inhibitory activity against recombinant Trypanothione reductase from Trypanosoma cruzi

B1: Trypanothione reductase (Trypanosoma cruzi), P28593 (protein)
chain: MMSKIFDLVVIGAGSGGLEAAWNAATLYKKRVAVIDVQMVHGPPFFSALGGTCVNVGCVPKKLMVTGAQYMEHLRESAGFGWEFDRTTLRAEWKKLIAVKDEAVLNINKSYEEMFRDTEGLEFFLGWGSLESKNVVNVRESADPASAVKERLETENILLASGSWPHMPNIPGIEHCISSNEAFYLPEPPRRVLTVGGGFISVEFAGIFNAYKPKDGQVTLCYRGEMILRGFDHTLREELTKQLTANGIQILTKENPAKVELNADGSKSVTFESGKKMDFDLVMMAIGRSPRTKDLQLQNAGVMIKNGGVQVDEYSRTNVSNIYAIGDVTNRVMLTPVAINEAAALVDTVFGTNPRKTDHTRVASAVFSIPPIGTCGLIEEVASKRYEVVAVYLSSFTPLMHNISGSKYKTFVAKIITNHSDGTVLGVHLLGDNAPEIIQGVGICLKLNAKISDFYNTIGVHPTSAEELCSMRTPSYYYVKGEKMEKPSEASL
Km: 50 µM
